# Tests used:
# murine T cells = experiment: Restoring proliferation of murine T cells treated with MTA (CellTrace Violet, FACS); assay type: cell-based, mouse; settings: 5 μM enzyme, CD8+ and CD4+ T cells
# Source text: Spleens dissected from healthy 8-week-old C57BL6 mice were crushed in a 70 μm Falcon™ Cell Strainer to obtain single cells, which were further isolated using the EasySep™ Mouse T-Cell Isolation Kit (Stem Cell). Isolated T cells were brought to a concentration of 1×10^6 cells/mL in PBS and were processed according to the CellTrace™ Violet Cell Proliferation Kit protocol (Thermo Fisher), which measures proliferation as a function of dye dilution with each cell-division. The labeled cells were then re-counted and brought to 1×10^6 cells/mL of RPMI media and 1 mL/well were plated, after which anti-CD3/CD28 beads were added to activate the T cells (Dynabeads® Mouse T-Activator CD3/CD28 for T-Cell Expansion and Activation from Thermo Fisher) according to the protocol from the kit. Subsequently, three different MTA concentrations, 0 μM MTA, 125 μM MTA, or 250 μM MTA were added to the plated cells. Finally, MTAP and MTAN were added to the appropriate wells at a final concentration of 5 μM enzyme, and PBS was added to the control wells. After incubation for five days, cells were then collected and stained with anti-CD3, anti-CD4, anti-CD8, and Fixable Viability Dye eFluor™ 520 and analyzed by FACS. The antibodies used were all from Biolegend: PE anti-mouse CD3 (17A2), APC anti-mouse CD4 (GK1.5), APC/Fire™ 750 anti-mouse CD8a (53-6.7), and Brilliant Violet 421™ anti-mouse Ki-67 (16A8). […]
# [1] = Kinetic stability of purified enzymes in phosphate buffer; assay type: physicochemical
# Protocol: The kinetic stabilities of purified hs-MTAP and se-MTAN enzymes were determined by incubating the enzymes in a 100 mM phosphate buffer (pH 7.4) at 37° C. Over the course of four days, aliquots of hs-MTAP and se-MTAN were withdrawn from the incubations and assessed for their ability to degrade MTA as described in Example 5. The resulting data were processed and fitted to an exponential equation to determine the decay rate.
# B16-F10 MTAP−/− tumor = experiment: Immune phenotype in the B16-MTAP−/− melanoma tumor model (FACS); assay type: in vivo, mouse; settings: two doses, 24 hr post dose, vs vehicle
# Protocol: Lymphocyte panels observed by FACS analyses from C57/BL6 mice bearing B16-F10 MTAP^−/− tumor samples were assessed after treatment with two doses of PEG-MTAP or vehicle (analyzed 24 hr post dose).
# [2] = system: B16-F10 MTAP−/− allografts; experiment: Efficacy in the B16-MTAP−/− melanoma tumor model; assay type: in vivo, mouse; settings: 50 mg/kg three times/week peri-tumoral, 2 weeks
# Source text: As B16 is a very well characterized cell line in terms of metabolism and its interaction with host immune systems, it was hypothesized that an MTAP deletion in this strain would create a relevant model to evaluate the consequences of MTA accumulation both metabolically to the tumor and upon the host immune system. Cas9 protein (TrueCut™ Cas9 Protein v2) and synthetic single guide RNA purchased through ThermoFisher were transfected into B16-F10 WT cells using lypofectamine (Lipofectamine™ CRISPRMAX™ Cas9 Transfection Reagent). After two days of transfection, cells were plated using limited dilution method into ten 96-well plates. Plates were examined daily for single cell clones and after reaching confluency (10-14 days post transfection) clones were further expanded and analyzed for MTAP expression through Western blotting, and clones lacking MTAP expression were verified for gene disruption by cloning and sequencing.
# (§1) Two cohorts each of C57/BL6 mice were subcutaneously inoculated with either 50,000 WT B16-F10 or B16-F10 MTAP^−/− cells. When the tumors reached a mean size of 55 mm^3 the mice were treated with either vehicle (PBS) or 50 mg/kg of PEG-MTAP three times/week by peri-tumoral injection for 2 weeks. As expected from a tumor highly expressing MTAP, it was observed that PEG-MTAP treatment had no effect on the growth of WT B16-F10 tumors (FIG. 8A).
# WT B16-F10 tumors = experiment: Efficacy in the B16 WT melanoma tumor model; assay type: in vivo, mouse; settings: C57/BL6 mice, 50 mg/kg three times/week peri-tumoral, 2 weeks
# Protocol: as §1
molecule,measurement,setting,value
"se-MTAN: MTAN enzyme from Salmonella enterica (SEQ ID NO: 3), N-terminal His6 tag, expressed in E. coli (protein, listed as Salmonella enterica, N-terminal His6 tag) MKIGIIGAMEEEVTLLRDKIDNRQTITLGGCEIYTGQLNGTEVALLKSGIGKVAAALGATLLLEHCKPDVIINTGSAGGLASTLKVGDIVVSDETRYHDADVTAFGYEYGQLPGCPAGFKADDKLIAAAESCIRELNLNAVRGLIVSGDAFINGSVGLAKIRHNFPDAVAVEMEATAIAHVCHNFNVPFVVVRAISDVADQQSHLSFDEFLAVAAKQSTLMVETLVQKLAHG",reversal of the MTA effect on T cell proliferation and viability,murine T cells,completely reversed
same,half-life (T1/2) of activity,"[1]; 100 mM phosphate buffer, pH 7.4, 37° C.",56 h
"hs-MTAP: MTAP enzyme from Homo sapiens (SEQ ID NO: 1), N-terminal His6 tag, expressed in E. coli (protein, listed as Homo sapiens, N-terminal His6 tag) MASGTTTTAVKIGIIGGTGLDDPEILEGRTEKYVDTPFGKPSDALILGKIKNVDCVLLARHGRQHTIMPSKVNYQANIWALKEEGCTHVIVTTACGSLREEIQPGDIVIIDQFIDRTTMRPQSFYDGSHSCARGVCHIPMAEPFCPKTREVLIETAKKLGLRCHSKGTMVTIEGPRFSSRAESFMFRTWGADVINMTTVPEVVLAKEAGICYASIAMATDYDCWKEHEEAVSVDRVLKTLKENANKAKSLLLTTIPQIGSTEWSETLHNLKNMAQFSVLLPRH",reversal of the MTA effect on T cell proliferation and viability,murine T cells,completely reversed
same,half-life (T1/2) of activity,[1]; pH 7.4,57 h
"PEG-hs-MTAP: hs-MTAP with surface lysine residues reacted with Methoxyl PEG Succinimidyl Carbonate 5000 MW (conjugate, UniProt Q13126 1-283, looked up, PEG 5000, hs-MTAP with surface lysine residues reacted with Methoxyl PEG Succinimidyl Carbonate 5000 MW) S-methyl-5'-thioadenosine …: MASGTTTTAVKIGIIGGTGLDDPEILEGRTEKYVDTPFGKPSDALILGKIKNVDCVLLARHGRQHTIMPSKVNYQANIWALKEEGCTHVIVTTACGSLREEIQPGDIVIIDQFIDRTTMRPQSFYDGSHSCARGVCHIPMAEPFCPKTREVLIETAKKLGLRCHSKGTMVTIEGPRFSSRAESFMFRTWGADVINMTTVPEVVLAKEAGICYASIAMATDYDCWKEHEEAVSVDRVLKTLKENANKAKSLLLTTIPQIGSTEWSETLHNLKNMAQFSVLLPRH",percentage of CD4+ T cells,B16-F10 MTAP−/− tumor,large increases
same,percentage of NK1.1+ natural killer cells,B16-F10 MTAP−/− tumor,large increases
same,percentage of proliferating CD8+ Granzyme B+ T cells,B16-F10 MTAP−/− tumor,large increases
same,complete responses (CRs) in the treatment group,[2]; 3/7 CRs,43%
same,tumor growth,[2]; C57/BL6 mice,drastically retarded tumor growth
same,tumor growth,WT B16-F10 tumors,no effect

# — patent publication US11118167B2, “Enzyme-mediated depletion of adenosine and/or methylthioadenosine” (BOARD OF REGENTS, THE UNIVERSITY OF TEXAS SYSTEM, priority 2017, dated 2021)
